T1: PDGFR-beta extracellular domain construct D1-D4 (human)
T1 construct: also called D1-4
T1 chain: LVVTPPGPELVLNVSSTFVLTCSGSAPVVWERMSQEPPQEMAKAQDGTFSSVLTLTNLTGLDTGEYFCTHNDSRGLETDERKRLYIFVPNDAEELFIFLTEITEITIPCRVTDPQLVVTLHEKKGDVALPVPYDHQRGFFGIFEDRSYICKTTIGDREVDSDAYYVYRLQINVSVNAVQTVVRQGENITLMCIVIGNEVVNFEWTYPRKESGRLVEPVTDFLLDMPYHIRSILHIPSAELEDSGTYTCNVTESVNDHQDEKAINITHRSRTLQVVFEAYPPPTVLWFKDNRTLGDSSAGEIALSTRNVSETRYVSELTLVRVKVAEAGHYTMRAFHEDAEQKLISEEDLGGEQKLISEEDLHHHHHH

B1: H4H3094P (antibody, human IgG4, V domains shown)
VH: EVQLVESGGGLVQPGGSLRLSCAASGFTFSSYWMSWVRQAPGKGLEWVANMNQDGSETHYVDSVKGRLSISRDNAKKSLFLHMNSLRAEDTAVYFCARDLVPPRQDDYYYYFGMDVWGHGTTVTVSS
VL: DIQMTQSPSTLSASVGDRVTITCRASQSISDWLAWYQQKPGKAPKLLIFKASTLESGVPSRFSGSGSGTEFTLTISSLQPDDFATYYCQQYNSYSRTFGQGTKVEIK
notes: also called H4H3394P
B2: H4H3305N (antibody, human IgG4, V domains shown)
VH: QLQLQESGPGLVKPSETLSLTCIVSGGSISSSSYYWGWIRQPPGKGLEWIGSLYYSGITFYNPSLKSRVTISVDTSKNQFSLTLTSVTAADTAVFYCARHRVMASSPFDHWGQGTLVTVSS
VL: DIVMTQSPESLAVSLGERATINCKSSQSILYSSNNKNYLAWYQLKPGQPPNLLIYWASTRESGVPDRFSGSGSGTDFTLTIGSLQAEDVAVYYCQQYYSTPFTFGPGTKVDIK
notes: human IgG4 Fc (H4H prefix)
B3: H4H3099S (antibody, human IgG4, V domains shown)
VH: QITLKESGPTLVKPTQTLTLTCTFSGFSLTTTGVGVGWIRQPPGKALEWLALIYWNDLKRYSPSLKNRLTITKDTSRHQVVLTMTNMDPMDTATYYCAHRPLYYGSGSGWFDPWGPGTTVTVSS
VL: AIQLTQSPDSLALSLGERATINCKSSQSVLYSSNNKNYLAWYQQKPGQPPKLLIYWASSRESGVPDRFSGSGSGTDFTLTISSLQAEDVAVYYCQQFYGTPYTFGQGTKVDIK
notes: human IgG4 Fc (H4H prefix)
B4: H4H3374N (antibody, human IgG4, V domains shown)
VH: QLQLQESGPGLVKPSETLSLTCTVSGGSITSSSYYWGWIRQPPGKGLEWIGSIYYRGSTNYNPSLKSRVTISVDSSKNQFYLKVSSVTAVDTAVYYCARQNGAARPSWFDPWGQGTLVTVSS
VL: EIVLTQSPDTISLSPGERATLSCRASQSISSIYLAWYQQKPGQAPRLLIYGASSRVTGIPDRFSVSGSGTDFTLTISRLEPEDFAVYYCQHYGISPFTFGPGTKVDIR
notes: human IgG4 Fc (H4H prefix)

Key:
[1] = target: T2, hPDGFRb.mmh (human, UniProt P09619 33-531); assay: Octet BLI cross-competition, 25 C; hPDGFRb.mmh on anti-Penta-His tips pre-saturated with mAb-1 H4H3305N (row 8)
T2 construct: Soluble monomeric construct; also called soluble human PDGFR-beta.mmh
Description: A cross-competition assay was conducted to assess the ability of select antibodies to compete with one another for binding to human PDGFR-beta. […] Each PDGFR-beta.mmh-coated sensor tip was saturated for 5 min with a first anti-PDGFR-beta antibody (Mab #1; 50 μg/mL). Next, each sensor tip was saturated with a solution of a second anti-PDGFR-beta antibody (Mab #2). The real time response of Mab #2 binding to PDGR-beta.mmh pre-complexed with Mab #1 was then monitored. All assays were performed at 25° C. with a flow rate of 1000 rpm on an Octet RED384 biosensor in Octet HBST buffer according to manufacturer's instructions (ForteBio Corp., Menlo Park, Calif.). Results are illustrated in FIG. 2.

[2] = target: T1, PDGFR-beta extracellular domain …; assay: SPR, mAb captured, construct as analyte
Description: Four different anti-PDGFR-beta antibodies were tested for binding to the various constructs by surface plasmon resonance (Biacore). Briefly, 150-200 RU's of anti-PDGFR beta antibody was captured via an anti-human Fc CM5 chip. Next, the individual domain constructs, or full-length PDGFR beta, was applied over the antibody-bound surface at a concentration of 50nM. The ability of the various antibodies to bind to the various domain constructs was measured. (−)=No binding observed; (+)=Binding observed; ND=Not determined.

Row | Binder | Response of mAb-2 Binding to hPDGFRβ.mmh Pre-Complexed with mAb-1 (nm) [1] [nm] | binding result [2]
1 | B1 | 0.25 | –
2 | B2 | – | no binding (tested: 50nM)
3 | B3 | – | no binding (tested: 50nM)
4 | B4 | 0.27 | –

Source: patent US20170210813A1 (Regeneron, published 2017)
